Experimental data reported in IntAct's records for PubMed 31515488.

B1: Cell division cycle 7-related protein kinase (Homo sapiens), O00311 (parent)
chain: MEASLGIQMDEPMAFSPQRDRFQAEGSLKKNEQNFKLAGVKKDIEKLYEAVPQLSNVFKIEDKIGEGTFSSVYLATAQLQVGPEEKIALKHLIPTSHPIRIAAELQCLTVAGGQDNVMGVKYCFRKNDHVVIAMPYLEHESFLDILNSLSFQEVREYMLNLFKALKRIHQFGIVHRDVKPSNFLYNRRLKKYALVDFGLAQGTHDTKIELLKFVQSEAQQERCSQNKSHIITGNKIPLSGPVPKELDQQSTTKASVKRPYTNAQIQIKQGKDGKEGSVGLSVQRSVFGERNFNIHSSISHESPAVKLMKQSKTVDVLSRKLATKKKAISTKVMNSAVMRKTASSCPASLTCDCYATDKVCSICLSRRQQVAPRAGTPGFRAPEVLTKCPNQTTAIDMWSAGVIFLSLLSGRYPFYKASDDLTALAQIMTIRGSRETIQAAKTFGKSILCSKEVPAQDLRKLCERLRGMDSSTPKLTSDIQGHASHQPAISEKTDHKASCLVQTPPGQYSGNSFKKGDSNSCEHCFDEYNTNLEGWNEVPDEAYDLLDKLLDLNPASRITAEEALLHPFFKDMSL
partner: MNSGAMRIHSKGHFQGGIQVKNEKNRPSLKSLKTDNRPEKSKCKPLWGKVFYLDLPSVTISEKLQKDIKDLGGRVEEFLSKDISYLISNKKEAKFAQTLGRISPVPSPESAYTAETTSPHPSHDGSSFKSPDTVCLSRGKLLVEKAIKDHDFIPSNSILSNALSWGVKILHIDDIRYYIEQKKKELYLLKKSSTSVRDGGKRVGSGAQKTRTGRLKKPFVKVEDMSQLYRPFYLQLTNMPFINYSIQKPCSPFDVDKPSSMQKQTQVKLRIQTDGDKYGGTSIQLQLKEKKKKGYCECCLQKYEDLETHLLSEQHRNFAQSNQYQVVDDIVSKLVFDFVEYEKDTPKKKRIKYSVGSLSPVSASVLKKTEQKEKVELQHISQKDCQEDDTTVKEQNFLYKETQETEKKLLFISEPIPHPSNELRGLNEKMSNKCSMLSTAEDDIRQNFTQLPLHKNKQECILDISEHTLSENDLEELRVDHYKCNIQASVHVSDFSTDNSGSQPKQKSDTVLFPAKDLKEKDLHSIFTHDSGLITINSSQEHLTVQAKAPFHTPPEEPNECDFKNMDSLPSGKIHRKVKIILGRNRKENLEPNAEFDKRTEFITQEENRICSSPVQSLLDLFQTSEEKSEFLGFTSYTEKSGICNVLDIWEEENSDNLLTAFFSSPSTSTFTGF
B2: Bcl-2-interacting killer (Homo sapiens), Q13323 (parent)
chain: MSEVRPLSRDILMETLLYEQLLEPPTMEVLGMTDSEEDLDPMEDFDSLECMEGSDALALRLACIGDEMDVSLRAPRLAQLSEVAMHSLGLAFIYDQTEDIRDVLRSFMDGFTTLKENIMRFWRSPNPGSWVSCEQVLLALLLLLALLLPLLSGGLHLLLK
partner: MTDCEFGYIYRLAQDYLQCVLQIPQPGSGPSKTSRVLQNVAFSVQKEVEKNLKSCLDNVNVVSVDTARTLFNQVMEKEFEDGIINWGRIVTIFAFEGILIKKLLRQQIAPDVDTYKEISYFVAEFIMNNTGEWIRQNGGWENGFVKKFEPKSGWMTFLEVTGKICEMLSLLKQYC
B3: Peroxisomal bifunctional enzyme (Homo sapiens), Q08426 (parent)
chain: MAEYTRLHNALALIRLRNPPVNAISTTLLRDIKEGLQKAVIDHTIKAIVICGAEGKFSAGADIRGFSAPRTFGLTLGHVVDEIQRNEKPVVAAIQGMAFGGGLELALGCHYRIAHAEAQVGLPEVTLGLLPGARGTQLLPRLTGVPAALDLITSGRRILADEALKLGILDKVVNSDPVEEAIRFAQRVSDQPLESRRLCNKPIQSLPNMDSIFSEALLKMRRQHPGCLAQEACVRAVQAAVQYPYEVGIKKEEELFLYLLQSGQARALQYAFFAERKANKWSTPSGASWKTASARPVSSVGVVGLGTMGRGIVISFARARIPVIAVDSDKNQLATANKMITSVLEKEASKMQQSGHPWSGPKPRLTSSVKELGGVDLVIEAVFEEMSLKKQVFAELSAVCKPEAFLCTNTSALDVDEIASSTDRPHLVIGTHFFSPAHVMKLLEVIPSQYSSPTTIATVMNLSKKIKKIGVVVGNCFGFVGNRMLNPYYNQAYFLLEEGSKPEEVDQVLEEFGFKMGPFRVSDLAGLDVGWKSRKGQGLTGPTLLPGTPARKRGNRRYCPIPDVLCELGRFGQKTGKGWYQYDKPLGRIHKPDPWLSKFLSRYRKTHHIEPRTISQDEILERCLYSLINEAFRILGEGIAASPEHIDVVYLHGYGWPRHKGGPMFYASTVGLPTVLEKLQKYYRQNPDIPQLEPSDYLKKLASQGNPPLKEWQSLAGSPSSKL
partner: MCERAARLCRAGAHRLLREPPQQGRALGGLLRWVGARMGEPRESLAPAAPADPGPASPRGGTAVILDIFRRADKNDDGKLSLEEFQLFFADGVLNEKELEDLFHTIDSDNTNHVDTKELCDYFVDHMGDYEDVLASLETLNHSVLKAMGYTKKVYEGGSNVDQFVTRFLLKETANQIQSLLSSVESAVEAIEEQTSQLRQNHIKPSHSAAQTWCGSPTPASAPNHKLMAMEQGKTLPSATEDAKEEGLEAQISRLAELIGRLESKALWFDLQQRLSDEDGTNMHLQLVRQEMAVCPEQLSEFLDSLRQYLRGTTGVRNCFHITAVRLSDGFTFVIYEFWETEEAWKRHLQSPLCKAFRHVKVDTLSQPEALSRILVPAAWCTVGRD
B4: Cysteine-rich C-terminal protein 1 (Homo sapiens), Q9UGL9 (parent)
chain: MSSQQSAVSAKGFSKGSSQGPAPCPAPAPTPAPASSSSCCGSGRGCCGDSGCCGSSSTSCCCFPRRRRRQRSSGCCCCGGGSQRSQRSNNRSSGCCSGC
partner: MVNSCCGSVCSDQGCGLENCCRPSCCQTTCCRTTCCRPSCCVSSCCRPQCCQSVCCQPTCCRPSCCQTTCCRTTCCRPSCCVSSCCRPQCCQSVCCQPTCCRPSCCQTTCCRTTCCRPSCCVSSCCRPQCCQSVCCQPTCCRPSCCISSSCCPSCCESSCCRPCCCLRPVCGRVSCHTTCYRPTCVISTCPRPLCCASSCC
B5: Septin-12 (Homo sapiens), Q8IYM1 (parent)
chain: MDPLRRSPSPCLSSQPSSPSTPPCEMLGPVGIEAVLDQLKIKAMKMGFEFNIMVVGQSGLGKSTMVNTLFKSKVWKSNPPGLGVPTPQTLQLHSLTHVIEEKGVKLKLTVTDTPGFGDQINNDNCWDPILGYINEQYEQYLQEEILITRQRHIPDTRVHCCVYFVPPTGHCLRPLDIEFLQRLCRTVNVVPVIARADSLTMEEREAFRRRIQQNLRTHCIDVYPQMCFDEDINDKILNSKLRDRIPFAVVGADQEHLVNGRCVLGRKTKWGIIEVENMAHCEFPLLRDLLIRSHLQDLKDITHNIHYENYRVIRLNESHLLPRGPGWVNLAPASPGQLTTPRTFKVCRGAHDDSDDEF
partner: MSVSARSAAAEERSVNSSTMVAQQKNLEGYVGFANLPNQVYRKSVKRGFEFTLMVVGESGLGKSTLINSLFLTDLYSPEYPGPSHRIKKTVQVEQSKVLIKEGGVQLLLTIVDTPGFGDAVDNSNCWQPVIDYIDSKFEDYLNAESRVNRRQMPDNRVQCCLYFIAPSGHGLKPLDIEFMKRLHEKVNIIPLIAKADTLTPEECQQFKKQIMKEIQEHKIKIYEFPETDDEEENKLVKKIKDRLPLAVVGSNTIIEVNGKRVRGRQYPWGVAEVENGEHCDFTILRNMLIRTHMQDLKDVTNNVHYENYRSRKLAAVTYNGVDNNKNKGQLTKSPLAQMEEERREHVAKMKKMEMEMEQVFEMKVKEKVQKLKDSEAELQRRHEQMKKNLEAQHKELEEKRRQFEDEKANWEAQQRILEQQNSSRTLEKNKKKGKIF

Variants of: B1
Details: with dbf4a_human DBF4, Q9UBU7
For I99T, the “effect of a mutation on the interaction” value was “with no effect”. In the case of I99L, the “effect of a mutation on the interaction” value is reported as “with no effect”. Q106R was tested, and the “effect of a mutation on the interaction” value was “with no effect”. With Q456H the “effect of a mutation on the interaction” value was “with no effect”. For K416T, the “effect of a mutation on the interaction” value was “with no effect”.

Variants of: B2
Details: with BCL2A1, Q16548
For D69E, the “effect of a mutation on the interaction” value was “with no effect”.

Variants of: B3
Details: with neca2_human NECAB2, Q7Z6G3
For R483Q, the “effect of a mutation on the interaction” value was “disrupting interaction strength”. In the case of I646T, the “effect of a mutation on the interaction” value is reported as “disrupting interaction strength”. L715S was tested, and the “effect of a mutation on the interaction” value was “disrupting interaction strength”. In the case of S703F, the “effect of a mutation on the interaction” value is reported as “with no effect”.

Variants of: B4
Details: with kr412_human KRTAP4-12, Q9BQ66
G20S was tested, and the “effect of a mutation on the interaction” value was “with no effect”.

Variants of: B5
Details: with sept7_human SEPTIN7, Q16181
G169E was tested, and the “effect of a mutation on the interaction” value was “disrupting interaction strength”.
